Measured values as given in patent US20130224222A1.

Target: thioredoxin (endogenous, mouse mediobasal hypothalamus extracts) (mouse) (UniProt P10639)
Test: cell-based or functional assay

Chain of UniProt P10639 (P10639 whole entry): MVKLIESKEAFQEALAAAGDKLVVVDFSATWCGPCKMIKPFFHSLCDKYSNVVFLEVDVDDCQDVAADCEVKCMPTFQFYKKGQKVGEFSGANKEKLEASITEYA

Row | thioredoxin activity in the MBH (insulin-reducing assay) (fold decrease) | thioredoxin activity in the MBH (insulin-reducing assay) after TXNIP shRNA knockdown [% increase] | Substance
1 | 2 | – | human thioredoxin-interacting protein (hTXNIP) (from UniProt Q9H3M7 1-391)
2 | – | 50 | thioredoxin-interacting protein (TXNIP), endogenous mouse (from UniProt Q8BG60 1-397)
